The target of assay [1] is Staphylococcus aureus LexA (S. aureus). The assay can be described thus: SPR; […] (6-1458 nM), 180 s at 30 uL/min, 25 °C; 20 mM HEPES pH 7.4, 150 mM NaCl, 3 mM EDTA, 0.1 mg/mL BSA, 0.005% P20; […]. (In general: SPR reads the build-up and loss of mass on a sensor chip optically.)
For assay [2] the target is unchanged. In words: SPR; LexA immobilised on a CM5 chip (1200 to 1300 RU); analytes in three-fold dilutions (6-1458 nM), 180 s at 30 uL/min, 25 °C; 20 mM HEPES pH 7.4, 150 mM NaCl, 3 mM EDTA, 0.1 mg/mL BSA, 0.005% P20; apparent KD from steady-state affinity fits, two titrations.
Assay [3] concerns the target Bacillus thuringiensis serovar israelensis LexA (B. thuringiensis serovar israelensis). Described as above.

“tectiviral gp7 homolog of Bacillus anthracis phage AP50 (natural protein)”: in assay [1], the Kd amounted to 0.446 µM.
With “tectiviral gp7 homolog from the phage found in Bacillus cereus VD184 (natural protein)”, the Kd in assay [2] was determined as 0.381 µM.
With “tectiviral gp7 homolog from the phage found in Bacillus thuringiensis serovar aizawai (natural protein)”, in assay [2], the Kd came out at 0.302 µM.
Regarding “Bacillus thuringiensis uncharacterized protein M1QNS5 (natural protein)”, the Kd in assay [3] came to 0.365 µM.
“tectiviral gp7 homolog from the phage found in Bacillus cereus HuB13-1 (natural protein)”: in assay [2], the Kd was found to be 0.787 µM.
On to “Staphylococcus aureus nucleoid-associated protein HU, purified recombinant (from UniProt Q5HFV0 1-90) (natural protein)”, for which the Kd in assay [2] was found to be 0.843 µM.
Turning to “gp7 of bacteriophage GIL01 (natural protein)”, the Kd in assay [2] came out at 0.298 µM.
On to “tectiviral gp7 homolog of Bacillus mycoides VDm034 phage Lima (natural protein)”, for which, in assay [1], the Kd turned out to be 0.331 µM.

Source of the values: publication PMC9700832.
